Molecular target: Purified β-actin (Cytoskeleton) (UniProt P60709)
Assay: SPR

GST-tagged Myo1c neck plus tail (domain or fragment)
Kd: < 2000 nM

Reference: PMC3392929
